{"source": "paper PMC5415311", "target": "adeno-associated virus (AAV)-DJ capsid protein", "experiment": "cryo-EM structure"}
{"substance": "adeno-associated virus (AAV)-DJ capsid protein", "values": [{"measurement": "stoichiometry N", "result": 60}]}
